Experimental data from US11090391B2, “Protein nanocages with enhanced mucus penetration for targeted tissue and intracellular delivery” (The Johns Hopkins University, priority 2016, dated 2021).

Assays:
3LL cell spheroids = assay: Penetration of Cy5-labeled FTn in multicellular tumor spheroids; assay type: cell-based, mouse; details: for distribution in spheroids (3D-reconstructed confocal images): 40 nM, 2-hour incubation; for mean fluorescence signal intensity in spheroids compared to FTn: FIG. 4A
Method: (§1) See detailed procedures as described in Example 4.
Multicellular tumor spheroid models consisting of different cancer cell lines were prepared by modifying a previously reported protocol (Friedrich J, et al, Nature Protocols, 4:309-324 (2009)). Briefly, 50 μL DMEM medium containing 1.5% agarose (wt/vol) was plated onto each well of a 96-well microtiter plate under sterile conditions. After the agarose solidifies, the plates were stored at room temperature until use. For the penetration study, 5×10^3 cells were seeded onto the agarose-plated 96-well plates. After 4-5 days culture to obtain multicellular tumor spheroids (400-500 μm in diameter), the tumor spheroids were carefully transferred into glass bottom dishes. […] After the 2-hour incubation, the cells were observed using confocal microscopy with Z-stack imaging at ˜10 μm intervals. […] The 3D images of spheroids were reconstructed by ZEN microscopy software (Carl Zeiss). For analyzing the penetration distance, the radial intensity distribution profile was determined using a custom-made MATLAB code where αtumor is the radius of individual spheroids and r is the radial distance from the spheroid center (r/αtumor=0 and 1 indicate the center and edge of the tumor spheroid, respectively). […] Quantification analysis of signal intensity was performed with ImageJ software (NIH).

[1] = Airway distribution after intranasal administration; assay type: in vivo, mouse; details: for retention in lung airways (overall fluorescence intensity): compared to non-PEGylated FTn; for coverage of mouse tracheal surfaces: intranasal, 10 minutes after administration
Excerpt: All experiments were approved by the Institutional Animal Care and Use Committee.
Female CF-1 mice (6-8 week) were anesthetized under continuous flow of isoflurane (2% in oxygen). […] Ten minutes after administration, mice were sacrificed and the entire lungs (including trachea) were removed and frozen in Tissue-Tek optimal cutting temperature compound (Sakura Finetek). Tracheas were sectioned on a Leica Cryostat (Leica Biosystems) with a section thickness of 10 μm. The sections were stained with Prolong Gold antifade with DAPI (Life technologies), and fluorescence images of the sections were obtained using a Zeiss confocal microscope. To quantify the particle distribution, the acquired images were analyzed by following an image-based analysis method that was previously reported (Mastorakos P, et al., Proc Nat Acad Sci USA, 112(28):8720-5 (2015)). Briefly, at least 10 fluorescence images at 10× magnification were taken for the lungs harvested from individual animals. The images were quantified with ImageJ software. An average coverage and total particles in airways were determined for each mouse, and then these values were averaged over a group of n=4 mice.

3LL cells [2] = assay: Cell uptake / TfR 1-dependent binding of Cy5-labeled FTn formulations, flow cytometry; assay type: cell-based, mouse
Method: as §1
Subsequently, cells were incubated with Vibrant® DiO cell labeling solution (Life technologies) for 10 minutes following manufacturer's protocol (sub-cellular localization at cell membranes & lipids). After three times washing with PBS, the cells were fixed with Z-fix solution (Anatech) for 15 min, followed by 1.5 μg/mL DAPI staining at room temperature.
(§2) After washing with cold PBS, cells were analyzed using an AccuriC6 flow cytometer (BD Biosciences). […] The data was fitted to a binding curve via non-linear regression method using GraphPad Prism (GraphPad Software).

[3] = Hydrodynamic diameter by gel-filtration / size exclusion chromatography; assay type: physicochemical
Method: Briefly, the protein standards with known HD (Bio-Rad), including M1 (thyroglobulin; 669 kDa, 18.8 nm HD), M2 (γ-globulin; 158 kDa, 11.9 nm HD), M3 (ovalbumin; 44 kDa, 6.13 nm HD), M4 (myoglobin; 17 kDa, 3.83 nm HD) and M5 (vitamin B12; 1.35 kDa, 1.48 nm HD), were analyzed using GFC and subsequently a standard curve of HD vs retention time was established.

[4] = PEG surface density, fluorometric determination; assay type: physicochemical; details: for PEG2k density: reassembled FTn by % PEGylated protein
Method: The solution was placed on a rotary incubator for 4 hours and then concentrated by centrifugation (Amicon Ultra-0.5 mL 30 K MWCO; Millipore). […] The density was fluorometrically determined (Suk J S, et al., Advanced Drug Delivery Reviews, 99(Pt A):28-51, Epub 2015).
The ratio [Γ/SA] of total unconstrained PEG surface coverage area [Γ] to total particle surface area [SA] determines the surface PEG conformation: low-density mushroom and high-density brush regimes when [Γ/SA]<1 and [Γ/SA]≥1, respectively (Xu Q, et al., ACS Nano, 9. 9217-9227 (2015); Auguste D T, Biomaterials, 27, 2599-2608 (2006)). Briefly, the surface area occupied by one unconstrained PEG chain was calculated by random-walk statistics and given by a sphere of diameter ξ: ξ=0.76 m^1/2[Å], where m is MW of PEG chain, and the surface area occupied by one PEG molecule can be determined by π(ξ/2)^2. Thus, the surface area occupied by unconstrained PEG of MWs 10, 5 and 2 kDa is 45, 23 and 9 nm^2, respectively. The total unconstrained PEG surface area coverage [Γ] was then calculated by multiplying the area occupied at the surface per PEG chain by the total number of PEG chains per protein nanocage.

[5] = Colloidal stability by agarose gel electrophoresis (PBS, 10% human plasma); assay type: physicochemical; details: 0.5% agarose gel, 10% human plasma 1 hour 37° C.
Method: Nanocages reassembled in phosphate buffered saline (PBS) with varying % of PEGylated protein were analyzed by electrophoresis within a 0.5% agarose gel to determine any aggregation.

A549 = assay: Cell uptake of FTn, flow cytometry; assay type: cell-based, human; details: TfR 1-mediated
Method: as §2

[6] = target: transferrin receptor 1 (TfR 1) on mouse Lewis lung carcinoma (3LL) cells (mouse) (UniProt Q62351)
[7] = system: TfR 1-positive lung cancer cells; assay: Uptake of FTn/FTn-PEG2k by panel of cell lines; assay type: cell-based; details: C2C12, NCI-H69, H69-AR, SW210.5, A549, NCI-H460, NCI-H1975, PC 9
Method: as §2
TfR 1 expression was determined by western blot analysis with anti-TfR 1 antibody (Ab) (BD Pharmingen) in various cell lines in vitro, including mouse Lewis lung carcinoma (3LL) cells, mouse myoblast (C2C12, a TfR 1-negative cell line as the negative control), human small cell lung cancer cells (NCI-H69, H69-AR, and SW210.5), and human non-small cell lung cancer cells (A549, NCI-H460, NCI-H1975, and PC 9). The expression was also determined when 3LL, A549, PC9, and SW210.5 cells were incubated in 20% oxygen and 1% oxygen (i.e. hypoxic condition).

[8] = Physicochemical properties (hydrodynamic diameter, ζ-potential, drug loading)
Method: The DOX conjugated PEG-FTn is denoted as FTn/FTn-PEG2k/DOX. […] The mixture was incubated for 1 hour and 1.5 mg EDC was added to activate a carboxyl group of each DOX-linker conjugate. The resultant compounds were analyzed using high-performance liquid chromatography (HPLC, Varian Inc.) equipped with a C18 reverse phase column. […] The final product was extensively dialyzed (10 kDa MWCO; Thermo Scientific) and purified with a PD-10 column.

3LL cells [9] = assay: Intracellular trafficking, confocal microscopy; assay type: cell-based, mouse; details: 2 hours after addition
[10] = system: orthotopic 3LL lung cancer; details: mouse, in vivo
Method: The mice were sacrificed 2 hour post-administration, and the entire lungs were isolated and frozen slices were prepared.

Row | Substance | distribution in spheroids (3D-reconstructed confocal images) (3LL cell spheroids) | mean fluorescence signal intensity in spheroids compared to FTn (3LL cell spheroids) | retention in lung airways (overall fluorescence intensity) [1] | coverage of mouse tracheal surfaces [1] [%] | PEG2k density [4] | mean fluorescence signal intensity in spheroids in presence of anti-TfR 1 Ab (3LL cell spheroids; 10-fold molar excess, 1 hour) | other results
1 | FTn/FTn-PEG5k: hybrid FTn with 1:1 molar ratio of FTn and FTn conjugated with 5 kDa PEG | primarily near the periphery of tumor spheroids | significantly lower intensity | retained at higher levels | 80±8 | – | – | –
2 | FTn-Cy5: FTn labeled with fluorescent dye Cy5, ~23 dye molecules per FTn | – | – | – | – | – | – | uptake in the presence of anti-TfR 1 antibody (3LL cells [2]; 10-fold molar excess anti-TfR 1 Ab): significantly reduced uptake; penetration in presence of excess unlabeled FTn (3LL cell spheroids; 10-fold molar excess, 1 hour): reduced significantly
3 | FTn/FTn-PEG10k: hybrid FTn with 1:1 molar ratio of FTn and FTn conjugated with 10 kDa PEG | primarily near the periphery of tumor spheroids | significantly lower intensity | – | 74±8 | – | – | uptake compared to the uptake of FTn (3LL cells [2]; FIG. 3C): significantly reduced
4 | FTn: ferritin heavy-chain nanocages self-assembled from recombinant human ferritin heavy chain, without PEG | uniformly distributed throughout the entire spheroids including the core | – | – | 50±9 | 0 #/nm^2 | significantly decreased | diameter from size exclusion chromatography ([3]; pH 2.0, broad peak): 1.8-5.4 nm; diameter from size exclusion chromatography ([3]; pH 7.4, single peak): 13.2 nm; aggregation during electrophoresis (colloidal stability) [5]: aggregated and were stuck in the wells; uptake by A549 (A549): taken up; distribution in airways ([1]; mucus-covered large airways (trachea)): sparsely distributed in airways
5 | hybrid nanocage FTn/FTn-PEG2k (50% ferritin and 50% ferritin PEGylated with 2 kDa PEG) (ligand) | – | – | – | – | – | – | relative uptake (%) by 3LL cells, non-PEGylated FTn = 100% (% of the uptake of non-PEGylated FTn) [6]: > 80
6 | FTn/FTn-PEG2k: hybrid nanocage formed with 50% ferritin and 50% PEGylated ferritin using PEG2k | uniformly distributed throughout the entire spheroids including the core | indistinguishable | retained at higher levels | 77±8 | 0.21 #/nm^2 | significantly decreased | PEG surface density ([4]; hybrid nanocage, fluorometric measurement): ~0.24±0.03 PEG/nm^2; tumor cell uptake compared to non-PEGylated FTn (3LL cells [2]; 3LL cells, 2 kDa PEG, non-PEGylated FTn = 100%): more than 80%; uptake by TfR 1-positive cells [7]: efficiently taken up; Hydrodynamic diameter [8]: 13.6 ± 1.3 nm; ζ-potential [8]: −4.1 ± 1.1 mV; colocalization with lysosomes (3LL cells [9]): colocalized with lysosomes; localization in orthotopic lung cancer [10]: found preferentially within the tumor tissue
